Substitutions are numbered along the chain they refer to. Values joined by “and” are separate entries in the source; they are usually repeats but may differ in a detail not shown here. Equal entries are not always repeated.
B1: 147D7H2 mouse-human chimeric antibody (antibody, human IgG4, V domains shown)
VH: EVQLQQSGAELVKPGASVKLSCTASGFNIKDYFIHWVKQRTEQGLEWIGRIDTEDGETKYAPKFQGKATITIDTSSNTAYLYFSSLTSEDTAMYYCARYGNYVAMDYWGQGTSVTVSS
VL: QIVLTQSPALMSASPGEKVTMTCSASSSVSYMFWYQQKPSSSPKPWIYLTSKLASGVPARFSGSGSGTSYSLTISSVEAEDAATYYCQQWNSNPYTFGGGTKLEIK
B2: 151G3B11 mouse-human chimeric antibody (antibody, human IgG4, V domains shown)
VH: EVHLQQSGAELVKPGASVKLSCTASGFNIKDYYMHWVKQRTEQGLEWIGRIDPEDGETKYAPKFQGQATITADTSSNTANLQLSSLTSEDTAVYYCARYGNFPDYWGPGTTLTVSS
VL: B1 VL with F33Y, S40R, V77M

How the values were obtained:
[1] = target: recombinant human IL-5 protein (human) (UniProt P05113); assay: ELISA, biotin-human IL-5 on streptavidin plate, Ab 0.1067 nM
[2] = target: recombinant human IL-5 protein (human) (UniProt P05113); assay: FACS blocking: biotin-IL-5 bound to CHOK1 IL-5Ra/CSF2RB cells, Ab 0.2667 nM
[3] = target: recombinant human IL-5 protein (human) (UniProt P05113); assay: ELISA, biotin-human IL-5 on streptavidin plate, Ab 0.0213 nM
[4] = target: recombinant human IL-5 protein (human) (UniProt P05113); assay: ELISA, biotin-human IL-5 on streptavidin plate, Ab 0.0043 nM
[5] = target: recombinant human IL-5 protein (human) (UniProt P05113); assay: cell-based or functional assay
[6] = target: recombinant human IL-5 protein (human) (UniProt P05113); assay: SPR, human IL-5 immobilized on CM5 chip, chimeric antibody as analyte, 1:1 global fit
[7] = target: recombinant human IL-5 protein (human) (UniProt P05113); assay: FACS blocking: biotin-IL-5 bound to CHOK1 IL-5Ra/CSF2RB cells, Ab 0.0107 nM
[8] = target: recombinant human IL-5 protein (human) (UniProt P05113); assay: FACS blocking: biotin-IL-5 bound to CHOK1 IL-5Ra/CSF2RB cells, Ab 0.0533 nM
[9] = target: recombinant human IL-5 protein (human) (UniProt P05113); assay: FACS blocking: biotin-IL-5 bound to CHOK1 IL-5Ra/CSF2RB cells, Ab 0.0004 nM
[10] = target: recombinant human IL-5 protein (human) (UniProt P05113); assay: FACS blocking: biotin-IL-5 bound to CHOK1 IL-5Ra/CSF2RB cells, Ab 33.3333 nM
[11] = target: recombinant human IL-5 protein (human) (UniProt P05113); assay: ELISA, biotin-human IL-5 on streptavidin plate, Ab 2.6667 nM
[12] = target: recombinant human IL-5 protein (human) (UniProt P05113); assay: FACS blocking: biotin-IL-5 bound to CHOK1 IL-5Ra/CSF2RB cells, Ab 0.0021 nM
[13] = target: recombinant human IL-5 protein (human) (UniProt P05113); assay: FACS blocking: biotin-IL-5 bound to CHOK1 IL-5Ra/CSF2RB cells, Ab 6.6667 nM
[14] = target: recombinant human IL-5 protein (human) (UniProt P05113); assay: ELISA, biotin-human IL-5 on streptavidin plate, Ab 0.0009 nM
[15] = target: recombinant human IL-5 protein (human) (UniProt P05113); assay: ELISA, biotin-human IL-5 on streptavidin plate, Ab 0.0002 nM
[16] = target: recombinant human IL-5 protein (human) (UniProt P05113); assay: ELISA, biotin-human IL-5 on streptavidin plate, Ab 0.5333 nM
[17] = target: recombinant human IL-5 protein (human) (UniProt P05113); assay: FACS blocking: biotin-IL-5 bound to CHOK1 IL-5Ra/CSF2RB cells, Ab 1.3333 nM
[18] = target: recombinant human IL-5 protein (human) (UniProt P05113); assay: ELISA, biotin-human IL-5 on streptavidin plate, Ab 13.3333 nM

| Binder | OD450 nm [1] | Fluorescence intensity [2] [MFI] | OD450 nm [3] | OD450 nm [4] | RLU, CTLL-2 proliferation with IL-5, Ab 0.000170667 nM [5] | RLU, CTLL-2 proliferation with IL-5, Ab 0.000853333 nM [5] | RLU, CTLL-2 proliferation with IL-5, Ab 0.004266667 nM [5] | RLU, CTLL-2 proliferation with IL-5, Ab 0.02133333 nM [5] | RLU, CTLL-2 proliferation with IL-5, Ab 0.1066667 nM [5] | RLU, CTLL-2 proliferation with IL-5, Ab 0.5333334 nM [5] | RLU, CTLL-2 proliferation with IL-5, Ab 2.666667 nM [5] | RLU, CTLL-2 proliferation with IL-5, Ab 13.33333 nM [5] | RLU, CTLL-2 proliferation with IL-5, Ab 66.66666 nM [5] | RLU, CTLL-2 proliferation with IL-5, Ab 3.41333E-05 nM [5] | RLU, TF-1 proliferation with IL-5, Ab 0.00001 nM [5] | RLU, TF-1 proliferation with IL-5, Ab 0.00003 nM [5] | RLU, TF-1 proliferation with IL-5, Ab 0.00017 nM [5] | RLU, TF-1 proliferation with IL-5, Ab 0.00085 nM [5] | RLU, TF-1 proliferation with IL-5, Ab 0.00427 nM [5] | RLU, TF-1 proliferation with IL-5, Ab 0.02133 nM [5] | further results |
| --- | --- | --- | --- | --- | --- | --- | --- | --- | --- | --- | --- | --- | --- | --- | --- | --- | --- | --- | --- | --- | --- |
| B1 | 1.25 OD450 nm and 1.3 OD450 nm | 76 | 0.406 OD450 nm and 0.385 OD450 nm | 0.172 OD450 nm and 0.156 OD450 nm | 50700 RLU and 51700 RLU | 50800 RLU and 50700 RLU | 41400 RLU and 48200 RLU | 33800 RLU and 36400 RLU | 12700 RLU and 13200 RLU | 9570 RLU and 10400 RLU | 8620 RLU and 8160 RLU | 7310 RLU and 6690 RLU | 5230 RLU and 5240 RLU | 56100 RLU and 52200 RLU | 99500 RLU and 101000 RLU | 100000 RLU and 95000 RLU | 96400 RLU and 88800 RLU | 89200 RLU and 82900 RLU | 56700 RLU and 54800 RLU | 45300 RLU and 43900 RLU | RLU, TF-1 proliferation with IL-5, Ab 0.10667 nM [5]: 39000 RLU and 38700 RLU; RLU, TF-1 proliferation with IL-5, Ab 0.53333 nM [5]: 36400 RLU and 40100 RLU; RLU, TF-1 proliferation with IL-5, Ab 2.66667 nM [5]: 34800 RLU and 41200 RLU; RLU, TF-1 proliferation with IL-5, Ab 13.33333 nM [5]: 35700 RLU and 39000 RLU; Kd [6]: < 63.7 pM; koff [6]: < 1e-05 s⁻¹; kon [6]: 157000 M⁻¹ s⁻¹; Fluorescence intensity [7]: 86 MFI; Fluorescence intensity [8]: 94 MFI; Fluorescence intensity [9]: 94 MFI; Fluorescence intensity [10]: 31 MFI; OD450 nm [11]: 3.22 OD450 nm and 3.35 OD450 nm; Fluorescence intensity [12]: 88 MFI; Fluorescence intensity [13]: 36 MFI; OD450 nm [14]: 0.102 OD450 nm and 0.104 OD450 nm; OD450 nm [15]: 0.103 OD450 nm and 0.101 OD450 nm; OD450 nm [16]: 2.74 OD450 nm and 2.91 OD450 nm; Fluorescence intensity [17]: 52 MFI; OD450 nm [18]: 3.44 OD450 nm and 3.72 OD450 nm |
| B2 | 1.87 OD450 nm and 1.92 OD450 nm | 68 | 0.622 OD450 nm and 0.678 OD450 nm | 0.194 OD450 nm and 0.244 OD450 nm | 47900 RLU and 63200 RLU | 54300 RLU and 63000 RLU | 51200 RLU and 58000 RLU | 41700 RLU and 43900 RLU | 10900 RLU and 10300 RLU | 8370 RLU and 8250 RLU | 6580 RLU and 7940 RLU | 5750 RLU and 5810 RLU | 3690 RLU and 4030 RLU | 46800 RLU and 55000 RLU | 95500 RLU and 93900 RLU | 89800 RLU and 92600 RLU | 76600 RLU and 80400 RLU | 66300 RLU and 74200 RLU | 41500 RLU and 46000 RLU | 38600 RLU and 44100 RLU | RLU, TF-1 proliferation with IL-5, Ab 0.10667 nM [5]: 41600 RLU and 38800 RLU; RLU, TF-1 proliferation with IL-5, Ab 0.53333 nM [5]: 36400 RLU and 36800 RLU; RLU, TF-1 proliferation with IL-5, Ab 2.66667 nM [5]: 38400 RLU and 36800 RLU; RLU, TF-1 proliferation with IL-5, Ab 13.33333 nM [5]: 36200 RLU and 33500 RLU; Kd [6]: < 63.7 pM; koff [6]: < 1e-05 s⁻¹; kon [6]: 157000 M⁻¹ s⁻¹; Fluorescence intensity [7]: 85 MFI; Fluorescence intensity [8]: 82 MFI; Fluorescence intensity [9]: 95 MFI; Fluorescence intensity [10]: 28 MFI; OD450 nm [11]: 3.47 OD450 nm and 3.5 OD450 nm; Fluorescence intensity [12]: 90 MFI; Fluorescence intensity [13]: 33 MFI; OD450 nm [14]: 0.127 OD450 nm and 0.114 OD450 nm; OD450 nm [15]: 0.098 OD450 nm and 0.127 OD450 nm; OD450 nm [16]: 3.03 OD450 nm and 2.93 OD450 nm; Fluorescence intensity [17]: 41 MFI; OD450 nm [18]: 3.7 OD450 nm and 3.52 OD450 nm |
